From article PMC10816986, “The Role of Key Amino Acids of the Human Fe(II)/2OG-Dependent Dioxygenase ALKBH3 in Structural Dynamics and Repair Activity toward Methylated DNA” (International Journal of Molecular Sciences, 2024) come the findings set out here.

Usually Kd stands for the equilibrium constant for the complex coming apart.

The subject of this assay is m3C_FRET substrate (m3C-containing DNA). The assay can be described thus: Stopped-flow FRET pre-steady-state kinetics of m3C DNA demethylation. In kind it is biochemical. Particulars: for k1 × 10^−6 / k2 / k3 / kr (irreversible step of substrate hydroxylation) / k−1 / k−2 / k−3 / Kd: global fitting of SF data to Scheme 1; for Kd: read-out: Kd^Product (equilibrium dissociation constant of the enzyme–product complex); for Ka = K1 + K1 × K2 + K1 × K2 × K3: overall affinity for damaged DNA, Ki = ki/k−i. The source says:
In previous research, we employed a stopped-flow (SF) method to detect conformational changes in the dioxygenases AlkB and ALKBH2, as well as their substrates, throughout the catalytic cycle. The SF technique provides excellent opportunities for studying the conformational dynamics of protein–nucleic acid complexes under pre-steady-state conditions within the millisecond time range. Conformational transitions are typically detected by measuring the fluorescent signal from the tryptophan residues of the enzyme or fluorescent labels incorporated into the DNA substrate sequence. […] It should be noted that another common approach to detecting conformational dynamics based on measurement of the intrinsic Trp fluorescence of ALKBH3 was unsuccessful due to a low signal-to-noise ratio. The time-dependent FRET signal profiles following rapid (1 ms) mixing of equimolar amounts of enzyme and the m3C_FRET substrate in the presence of Fe(II) and 2OG ligands were obtained under near single-turnover conditions (Figure 3). […] In the case of the wt protein, the initial stage of the enzyme–substrate interaction was accompanied by a slight increase in the FRET signal between 20 ms and 2 s. Subsequently, from 10 s to 250 s, a significant quenching of fluorescence occurs, followed by stabilization at a constant level. The kinetic curve obtained for the Y143F mutant was similar to wt ALKBH3, except that the phase of decrease in the signal was shifted towards longer time scales (20–600 s).
For wt and Y143F ALKBH3, a series of SF traces were recorded across a range of m3C substrate concentrations from 0.5 to 4.0 µM (Figure 4). […] Additionally, a slight increase in signal, absent in the native protein, is discernible in the initial segment (1–5 ms) of the curves for Y143F ALKBH3, most likely indicative of the primary enzyme–substrate binding.
Table 1 summarizes the values of the rate constants describing the forward and reverse reactions of the mechanism, as well as the equilibrium dissociation constant of the enzyme–product complex. […] Subsequent isomerization of the enzyme–substrate complex is characterized by two equilibrium steps, which occur at half the rate in wt ALKBH3, yet with greater efficiency than for the Y143F protein. To assess the overall affinity of ALKBH3’s active site for damaged DNA, the equilibrium constant Ka = K1 + K1 × K2 + K1 × K2 × K3, where Ki = ki/k−i, was determined. […] In contrast, the rate of the step of irreversible hydroxylation of the methyl group by the native protein (kr^wt = 0.023 s^−1) is nearly twice as fast as that of the Y143F mutant (kr^Y143F = 0.013 s^−1). Furthermore, the equilibrium dissociation constant of the enzyme–product complex (Kd^Product) is almost an order of magnitude higher for wt ALKBH3. […] The substitution of Tyr143 with Phe leads to a reduction in the rate and efficiency of demethylation of the m3C substrate, likely due to perturbations in the structure of the catalytically competent complex and strong product binding, which complicates the enzyme’s transition to the next turnover.
Figure 3 Time courses of the FRET signal generated by the FAM/BHQ1 pair under interactions of wt, Y143F, Y143A, L177A, and H191A ALKBH3 with m3C-containing DNA. The fluorescence traces represent changes in the FRET signal after rapid mixing of 1.5 µM m3C_FRET substrate with 1.5 µM protein in the presence of 40 µM Fe(II) and 1 mM 2OG. Each curve was collected in a split mode within four time intervals (up to 0.1, 1, 50, and 500 or 1000 s) in 4–5 replicates.
Figure 4 Pre-steady-state kinetics of m3C-containing DNA demethylation by wt (A) and Y143F (B) ALKBH3 proteins.

B1: wt ALKBH3: wild-type human Fe(II)/2OG-dependent dioxygenase ALKBH3 with N-terminal His-tag, expressed in E. coli (protein, UniProt Q96Q83 1-286, looked up)
Alpha-ketoglutarate-dependent …: MEEKRRRARVQGAWAAPVKSQAIAQPATTAKSHLHQKPGQTWKNKEHHLSDREFVFKEPQQVVRRAPEPRVIDREGVYEISLSPTGVSRVCLYPGFVDVKEADWILEQLCQDVPWKQRTGIREDITYQQPRLTAWYGELPYTYSRITMEPNPHWHPVLRTLKNRIEENTGHTFNSLLCNLYRNEKDSVDWHSDDEPSLGRCPIIASLSFGATRTFEMRKKPPPEENGDYTYVERVKIPLDHGTLLIMEGATQADWQHRVPKEYHSREPRVNLTFRTVYPDPRGAPW
modifications: N-terminal His-tag
notes: wild-type human Fe(II)/2OG-dependent dioxygenase ALKBH3 with N-terminal His-tag, expressed in E. coli
Regarding B1, the “k1 (formation of the primary enzyme–substrate complex)” value was 9.4e+07 M⁻¹ s⁻¹, the “k1 × 10^−6” value was 19 ± 3 M^−1 s^−1, the k2 came to 2.9 ± 0.9 s⁻¹ and the k3 is 0.57 ± 0.12 s⁻¹. In addition, the “kr (irreversible step of substrate hydroxylation)” value (shortened to “kr”) was 0.023 ± 0.003 s⁻¹, the “k−1” value is 64 ± 5 s⁻¹, the “k−2” value was determined as 2.8 ± 0.5 s⁻¹ and the “k−3” value is 0.13 ± 0.01 s⁻¹. Further, the dissociation constant Kd was 720 nM and the “Ka = K1 + K1 × K2 + K1 × K2 × K3” value was “(1.9 ± 0.2) × 10^6 M^−1”. Further, the “kr” value (listed as wt) was 0.023 s⁻¹.

B2: Y143F ALKBH3: ALKBH3 mutant, Tyr143 replaced with Phe (protein, UniProt Q96Q83 1-286, looked up, variant Y143F)
Alpha-ketoglutarate-dependent …: MEEKRRRARVQGAWAAPVKSQAIAQPATTAKSHLHQKPGQTWKNKEHHLSDREFVFKEPQQVVRRAPEPRVIDREGVYEISLSPTGVSRVCLYPGFVDVKEADWILEQLCQDVPWKQRTGIREDITYQQPRLTAWYGELPYTFSRITMEPNPHWHPVLRTLKNRIEENTGHTFNSLLCNLYRNEKDSVDWHSDDEPSLGRCPIIASLSFGATRTFEMRKKPPPEENGDYTYVERVKIPLDHGTLLIMEGATQADWQHRVPKEYHSREPRVNLTFRTVYPDPRGAPW
For the molecule B2, the “k1 (formation of the primary enzyme–substrate complex)” value was found to be 1.9e+07 M⁻¹ s⁻¹, the “k1 × 10^−6” value was 94 ± 3 M^−1 s^−1, the k2 is 6.1 ± 1.4 s⁻¹ and the k3 was 1.4 ± 0.1 s⁻¹. For the same molecule, the “kr” value was found to be 0.013 ± 0.001 s⁻¹, the “k−1” value was determined as 270 ± 26 s⁻¹, the “k−2” value turned out to be 7.7 ± 0.24 s⁻¹ and the “k−3” value was 0.48 ± 0.03 s⁻¹. In addition, the Kd turned out to be 83 nM and the “Ka = K1 + K1 × K2 + K1 × K2 × K3” value was “(1.4 ± 0.1) × 10^6 M^−1”. In addition, the “kr” value (listed as Y143F) was 0.013 s⁻¹.
